This is an account of results in patent US20090304717A1.

In data set [1] the target is PSMA (prostate-specific membrane antigen) (UniProt Q04609). Briefly: cell_activity. Particulars: cytotoxicity on LNCaP, no effect on PSMA-negative MCF-7.
For data set [2] the target is unchanged. The data set is described as follows: flow. The settings on record: LNCaP cells, on ice, sigmoidal fit.
The mark [3] stands for this setting: 2'-F pyrimidines (library chemistry).

Sequence of UniProt Q04609 (Q04609 whole entry): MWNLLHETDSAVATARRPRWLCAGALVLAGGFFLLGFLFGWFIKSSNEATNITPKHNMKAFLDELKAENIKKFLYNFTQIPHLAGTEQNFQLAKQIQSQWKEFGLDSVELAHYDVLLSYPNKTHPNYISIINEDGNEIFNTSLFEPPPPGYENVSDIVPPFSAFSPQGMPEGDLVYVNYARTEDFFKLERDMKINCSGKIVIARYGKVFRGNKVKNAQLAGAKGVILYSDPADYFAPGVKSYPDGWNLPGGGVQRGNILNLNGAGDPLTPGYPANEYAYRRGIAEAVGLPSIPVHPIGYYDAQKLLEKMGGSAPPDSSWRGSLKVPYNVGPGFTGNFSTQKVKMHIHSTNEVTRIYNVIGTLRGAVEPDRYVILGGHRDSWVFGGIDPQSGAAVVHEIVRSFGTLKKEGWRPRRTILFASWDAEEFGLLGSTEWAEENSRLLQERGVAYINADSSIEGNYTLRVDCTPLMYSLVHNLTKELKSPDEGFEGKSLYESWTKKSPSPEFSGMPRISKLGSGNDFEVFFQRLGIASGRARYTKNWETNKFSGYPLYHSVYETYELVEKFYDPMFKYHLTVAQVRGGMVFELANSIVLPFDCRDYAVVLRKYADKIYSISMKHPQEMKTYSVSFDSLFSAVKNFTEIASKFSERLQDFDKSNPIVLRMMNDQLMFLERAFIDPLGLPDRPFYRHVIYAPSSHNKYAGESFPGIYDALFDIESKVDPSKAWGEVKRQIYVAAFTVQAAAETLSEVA

The EC50 is the concentration giving half of the maximal effect. Lower therefore signals an effect from little substance. Take “GGGAGGACGAUGCGGAUCAGCCAUGUUUACGUCACUCCUUGUCAAUCCUCAUCGGCUAAAAUUAGGCCUAUCUGCCCGUCAAUUAAAAAUUGGGAGGACGAUGCGGAUCAGCCAUGUUUACGUCACUCCUUGUCAAUCCUCAUCGGCAGCGCCAUCAUGGACAAGAAUUGAAGCUUCUUCUUGUCCAUGAUGGCGCGGAAAAAAAUUGACGGGCAGAUAGGCCUUUGAGCUCGAAUU [PSMB2-siEEF2]”: in data set [1] (transcribed with Durascribe T7 kit (kit implies 2'-F pyrimidines), +/-0.01282), the EC50 stood at 212 nM.

In general, Kd refers to the free concentration of one partner at which half of the binding sites on the other are occupied at equilibrium, for simple one-to-one binding. In data set [2] (transcribed with Durascribe T7 kit (kit implies 2'-F pyrimidines)), “GGGAGGACGAUGCGGAUCAGCCAUGUUUACGUCACUCCUUGUCAAUCCUCAUCGGCUAAAAAUUGCGCCAUCAUGGACAAGAAUU / GGGAGGACGAUGCGGAUCAGCCAUGUUUACGUCACUCCUUGUCAAUCCUCAUCGGCAAAAAUUCUUGUCCAUGAUGGCGCGG [PSMA biv anneal siEEF2 (1+2 annealed)]” came in with a Kd of 46.5 nM. This counts as double-digit nanomolar.

For the sequence “GGGAGGACGAUGCGGAUCAGCCAUGUUUACGUCACUCCUUGUCAAUCCUCAUCGGCAGCGCCAUCAUGGACAAGAAUUGAAGCUUCUUCUUGUCCAUGAUGGCGCGG [xPSM-A-3-siEEF2]”, the Kd in data set [2] (setting [3]) was 26.7 nM. Further, the EC50 in data set [1] (setting [3]) stood at 1510 nM.

In the case of “GGGAGGACGAUGCGGAUCAGCCAUGUUUACGUCACUCCUUGUCAAUCCUCAUCGGCUAAAAAUUGCGCCAUCAUGGACAAGAAUUAAUUAAGGGAGGACGAUGCGGAUCAGCCAUGUUUACGUCACUCCUUGUCAAUCCUCAUCGGCAAAAAUUCUUGUCCAUGAUGGCGCGGGAGCUCGAAUU [PSMB1-siEEF2]”, the EC50 in data set [1] (transcribed with Durascribe T7 kit (kit implies 2'-F pyrimidines), +/-0.1246) stood at 517 nM.
